According to patent US20250115669A1, “FGFR1/KLB Targeting Agonistic Antigen-Binding Proteins and Conjugates Thereof with GLP-1R Agonistic Peptides” (SANOFI, priority 2020, published 2025):
Changes are numbered by the printed parent chain. Numbers in names are those of the source.

T1: human beta-Klotho (Homo sapiens, UniProt Q86Z14)
T1 sequence (Q86Z14 1-1044): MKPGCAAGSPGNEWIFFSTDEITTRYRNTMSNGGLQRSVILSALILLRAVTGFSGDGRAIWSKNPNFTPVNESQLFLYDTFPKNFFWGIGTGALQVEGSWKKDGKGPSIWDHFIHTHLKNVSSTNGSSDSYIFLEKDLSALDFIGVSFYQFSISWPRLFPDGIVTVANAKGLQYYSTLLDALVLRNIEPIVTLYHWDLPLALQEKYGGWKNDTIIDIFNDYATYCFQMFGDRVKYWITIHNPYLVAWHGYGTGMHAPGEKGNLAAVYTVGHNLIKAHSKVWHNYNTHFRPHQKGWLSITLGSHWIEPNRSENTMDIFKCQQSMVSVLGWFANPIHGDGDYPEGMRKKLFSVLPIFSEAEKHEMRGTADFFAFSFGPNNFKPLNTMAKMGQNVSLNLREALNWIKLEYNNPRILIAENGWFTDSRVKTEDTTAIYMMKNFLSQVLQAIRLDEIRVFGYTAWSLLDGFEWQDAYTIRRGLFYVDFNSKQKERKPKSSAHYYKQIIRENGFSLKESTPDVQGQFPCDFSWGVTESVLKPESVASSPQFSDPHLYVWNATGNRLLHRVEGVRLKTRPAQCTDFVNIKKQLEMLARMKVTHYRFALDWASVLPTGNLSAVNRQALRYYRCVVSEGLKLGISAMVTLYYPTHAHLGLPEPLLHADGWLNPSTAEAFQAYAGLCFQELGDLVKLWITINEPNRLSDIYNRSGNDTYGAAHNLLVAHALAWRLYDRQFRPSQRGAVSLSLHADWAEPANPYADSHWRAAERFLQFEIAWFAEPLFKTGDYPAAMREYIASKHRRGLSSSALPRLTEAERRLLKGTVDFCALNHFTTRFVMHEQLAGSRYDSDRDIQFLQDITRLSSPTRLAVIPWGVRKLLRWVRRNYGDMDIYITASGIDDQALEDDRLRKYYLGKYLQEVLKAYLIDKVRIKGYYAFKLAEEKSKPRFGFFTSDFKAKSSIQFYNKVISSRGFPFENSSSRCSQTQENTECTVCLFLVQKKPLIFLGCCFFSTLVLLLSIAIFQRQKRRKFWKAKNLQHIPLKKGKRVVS

B1: Ab0408: IgG4 PE; 16H7 VL (Y48del, D95T, W90F); 16H7 VH (M34V, H52W, I83T, D109E) (antibody)
VH: QVTLKESGPVLVKPTETLTLTCTVSGFSLNNARVGVSWIRQPPGKALEWLAWIFSNDEKSYSTSLKSRLTISKDTSKSQVVLTMTNMDPVDTATYYCARSVVTGGYYYEGMDVWGQGTTVTVSS
light: SYVLTQPPSVSVAPGQTARITCGGNNIGSESVHWYQQKPGQAPVLVVDDSDRPSGIPERFSGSNSGNTATLTISRVEAGDEADYYCQVFDGNSTHVVFGGGTKLTVLGQPKANPTVTLFPPSSEELQANKATLVCLISDFYPGAVTVAWKADGSPVKAGVETTKPSKQSNNKYAASSYLSLTPEQWKSHRSYSCQVTHEGSTVEKTVAPTECS
B2: Ab0326: IgG4 PE; 16H7 VL (N25S, D49Y, D50E, D91E, N93S); 16H7 VH (M34V, I83T, D109E) (antibody)
VH: B1 VH with W52H
light: SYVLTQPPSVSVAPGQTARITCGGSNIGSESVHWYQQKPGQAPVLVVYYESDRPSGIPERFSGSNSGNTATLTISRVEAGDEADYYCQVWEGSSDHVVFGGGTKLTVLGQPKANPTVTLFPPSSEELQANKATLVCLISDFYPGAVTVAWKADGSPVKAGVETTKPSKQSNNKYAASSYLSLTPEQWKSHRSYSCQVTHEGSTVEKTVAPTECS
B3: Ab0339: IgG4 PE; 16H7 VL (N25S, D49A, D50E, D91A, N93S); 16H7 VH (M34V, I83T, D109E) (antibody)
VH: B1 VH with W52H
light: B2 light with Y49A, E91A
B4: Ab0328: IgG4 PE; 16H7 VL (N25S, D49Y, D50A, D91A, N93S); 16H7 VH (M34V, I83T, D109E) (antibody)
VH: B1 VH with W52H
light: B2 light with E50A, E91A
B5: Ab0342: IgG4 PE; 16H7 VL (N25S, D49A, D50A, D91A, N93E); 16H7 VH (M34V, I83T, D109E) (antibody)
VH: B1 VH with W52H
light: B2 light with Y49A, E50A, E91A, S93E
B6: Ab0330: IgG4 PE; 16H7 VL (N25S, D49S, D50E, D91A, N93E); 16H7 VH (M34V, I83T, D109E) (antibody)
VH: B1 VH with W52H
light: B2 light with Y49S, E91A, S93E
B7: Ab0327: IgG4 PE; 16H7 VL (N25S, D49Y, D50Y, D91E, N93E); 16H7 VH (M34V, I83T, D109E) (antibody)
VH: B1 VH with W52H
light: B2 light with E50Y, S93E
B8: Ab0333: IgG4 PE; 16H7 VL (N25S, D49S, D50Y, D91A, N93S); 16H7 VH (M34V, I83T, D109E) (antibody)
VH: B1 VH with W52H
light: B2 light with Y49S, E50Y, E91A
B9: Ab0332: IgG4 PE; 16H7 VL (N25S, D49S, D50E, D91E, N93A); 16H7 VH (M34V, I83T, D109E) (antibody)
VH: B1 VH with W52H
light: B2 light with Y49S, S93A
B10: Ab0416: IgG4 PE; 16H7 VL (N25S, D49Y, D50E, D91E, N93E); 16H7 VH (M34V, I83T, D109E) (antibody)
VH: B1 VH with W52H
light: B2 light with S93E
B11: Ab0340: IgG4 PE; 16H7 VL (N25S, D49A, D50E, D91E, N93S); 16H7 VH (M34V, I83T, D109E) (antibody)
VH: B1 VH with W52H
light: B2 light with Y49A
B12: Ab0410: IgG4 PE; 16H7 VL (Y48del, D95S, W90Y); 16H7 VH (M34V, I83T, D109E) (antibody)
VH: B1 VH with W52H
light: B1 light with F89Y, T94S
B13: Ab0338: IgG4 PE; 16H7 VL (N25S, D49S, D50S, D91A, N93S); 16H7 VH (M34V, I83T, D109E) (antibody)
VH: B1 VH with W52H
light: B2 light with Y49S, E50S, E91A
B14: Ab0334: IgG4 PE; 16H7 VL (N25S, D49S, D50A, D91A, N93S); 16H7 VH (M34V, I83T, D109E) (antibody)
VH: B1 VH with W52H
light: B2 light with Y49S, E50A, E91A
B15: Ab0417: IgG4 PE; 16H7 VL (N25S, D49Y, D50E, D91H, N93E); 16H7 VH (M34V, I83T, D109E) (antibody)
VH: B1 VH with W52H
light: B2 light with E91H, S93E
B16: Ab0337: IgG4 PE; 16H7 VL (N25S, D49S, D50H, D91E, N93E); 16H7 VH (M34V, I83T, D109E) (antibody)
VH: B1 VH with W52H
light: B2 light with Y49S, E50H, S93E
B17: Ab0329: IgG4 PE; 16H7 VL (N25S, D49Y, D50S, D91A, N93S); 16H7 VH (M34V, I83T, D109E) (antibody)
VH: B1 VH with W52H
light: B2 light with E50S, E91A
B18: Ab0336: IgG4 PE; 16H7 VL (N25S, D49S, D50H, D91A, N93S); 16H7 VH (M34V, I83T, D109E) (antibody)
VH: B1 VH with W52H
light: B2 light with Y49S, E50H, E91A
B19: Ab0341: IgG4 PE; 16H7 VL (N25S, D49A, D50Y, D91A, N93S); 16H7 VH (M34V, I83T, D109E) (antibody)
VH: B1 VH with W52H
light: B2 light with Y49A, E50Y, E91A

biological target: T1, human beta-Klotho; assay: SPR off-rate screening of antibody mutants (human beta-Klotho captured by anti-His antibody); assay type: binding; settings: mean, n=3
Description: Screening of antibody mutants for binding to human beta-Klotho was determined in a different SPR assay set up. Human beta-Klotho was affinity captured by an anti-His antibody (from His capture kit, GE Healthcare) that was immobilized to a series S CM5 chip (GE Healthcare) by amine reactive coupling as described above. The antibody samples were used as analytes at 50 nmol/L concentration. Association time was 240 sec and dissociation time was 300 sec. Chip surfaces were regenerated using the regeneration solution supplied with the His capture kit. The off-rates (kd) were determined using single exponential fitting in the Biacore 8K Evaluation Software version 1.1.1.7442 (GE Healthcare).

koff human KLB | Molecule
no binding | B1
0.00175 s⁻¹ | B2
invalid fit | B3
invalid fit | B4
invalid fit | B5
invalid fit | B6
0.0003459 s⁻¹ | B7
0.0002507 s⁻¹ | B8
0.00143 s⁻¹ | B9
0.00107 s⁻¹ | B10
0.00176 s⁻¹ | B11
no binding | B12
0.0004292 s⁻¹ | B13
invalid fit | B14
0.0003027 s⁻¹ | B15
0.0005296 s⁻¹ | B16
invalid fit | B17
invalid fit | B18
invalid fit | B19
